The target in the assay is human BCMA (huBCMA), full length, on cells (human) (UniProt Q02223). Briefly: cell-based or functional assay.
Chain of human BCMA (huBCMA), full length, on cells (human) (Q02223 whole entry N81S): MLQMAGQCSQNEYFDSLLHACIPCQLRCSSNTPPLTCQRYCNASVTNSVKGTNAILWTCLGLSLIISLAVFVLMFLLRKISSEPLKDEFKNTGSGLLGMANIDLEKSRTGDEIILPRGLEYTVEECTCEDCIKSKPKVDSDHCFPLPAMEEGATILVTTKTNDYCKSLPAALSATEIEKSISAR

B1: 29C12-MCC-DM1 (antibody drug conjugate) (protein)
VH: EVQLLESGGALVQPGGSLRLSCAASGFTFSSYAMNWVRQAPGKGLEWVSAISVGGDTYYADSVKGRFTISRDNSKNTLYLQMNSLRAEDTAVYYCAKDQVTMVRGVWYYYGLDVWGQGTTVTVSS
VL: DIVMIQSPLSLPVTPGEPASISCRSSQSLLHSNGNNYLDWYLQKPGQSPHLLISLGSNRTSGVPDRFSGSGSGTDFTLKISRVEAEDVGVYYCMQALQPPRRFGQGTKLEIKR
The molecule B1 returned an H929 cell growth inhibition IC50 (CellTiter-Glo, 96 h) of 0.39 nM.

Values taken from patent publication US20170165373A1.
